The values below come from patent US9399667B2, “Peptides derived from cytotoxicity receptor natural killer protein 44 NKP44” (03;b. G. NEGEV TECHNOLOGIES AND APPLICATIONS LTD., AT …, priority 2012, dated 2016).

One assay has as its system human cancer cells. Nature of the assay: Direct binding of biotin-conjugated NKp44-derived peptides to human cancer cells (flow cytometry). The conditions noted are these: biotin-conjugated peptide 10 μg/well; number in brackets is an undefined grade. Background: In flow cytometry, cells or beads pass a laser one at a time.
Another assay concerns the target T1, NKp44-Ig (Homo sapiens, UniProt O95944).
T1 construct: fusion proteins containing the extracellular domains NKp30, NKp44 or NKp46 fused to the Fc portion of human IgG1
T1 sequence (O95944 22-192 limits assumed): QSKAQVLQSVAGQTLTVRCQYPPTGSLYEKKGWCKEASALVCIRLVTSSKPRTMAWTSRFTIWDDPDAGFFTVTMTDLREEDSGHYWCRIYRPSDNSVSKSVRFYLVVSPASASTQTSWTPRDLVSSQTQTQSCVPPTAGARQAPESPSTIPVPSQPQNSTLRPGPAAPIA
Briefly: Effect of peptides on NKp44-Ig binding to tumor cells (flow cytometry). The settings on record: for Effect on NKp44-Ig binding to tumor cells: 2 μg/well NKp44-Ig, 10 μg/well peptide, 1.5 hr, number in brackets is an undefined grade. The method, then:
(§1) Binding of rNK receptors and binding inhibition assays were performed as follows: 1×10^5 target cells were incubated with 2 μg of the NK receptor-Ig and 5 or 10 μg of the peptides in staining solution consisting of 0.5% (w/v) BSA and 0.05% sodium azide in PBS at 4° C. for 1.5 hrs. Then, cells were washed and stained with APC-conjugated anti-human IgG. Dead cells were detected with propidium iodide (PI). Percentage of inhibition was calculated as the percent of the cell population showing a reduced staining by the NK receptor-Ig in the presence of peptides as compared to reference positive staining by the NK receptor-Ig without peptides. […] Flow cytometry was performed using a FACSCanto II or FACScalibur (BD Bioscience) and results were analyzed using Diva 6.1.2 or CellQuest 3.3, respectively.
Target cells were incubated for 1.5 hr with 2 μg/well NKp44-Ig and 10 μg/well of each peptide. NKp44-Ig binding intensity was determined by flow cytometry, using fluorescent 2Ab (goat anti-mouse mAb).
(§2) Target cells were stained with 2 μg/well of NK receptor-Igs in the presence of 10 μg/well of SEQ ID NO: 4, 5, 55 (15mer-shared core sequence between SEQ ID NO:4 and 5), or SEQ ID NO: 1. The NK receptor-Ig staining intensities were determined by flow cytometry, using fluorescent APC-conjugated F(ab′)2 goat anti-human IgG.

The test system of assay [1] is human cancer cells, MIN6 murine beta cell line and primary mouse beta cells. Briefly: Direct binding of biotin-conjugated NKp46-derived peptides to target cells (flow cytometry, fluorescent Streptavidin). The settings on record: biotin-conjugated peptide 10 μg/well, number in brackets is an undefined grade.
The target in the next assay is T2, NKp46D2-Ig (Homo sapiens, UniProt O76036).
T2 construct: made in house
T2 sequence (O76036 with tags, fused parts or gaps isoform O76036-6): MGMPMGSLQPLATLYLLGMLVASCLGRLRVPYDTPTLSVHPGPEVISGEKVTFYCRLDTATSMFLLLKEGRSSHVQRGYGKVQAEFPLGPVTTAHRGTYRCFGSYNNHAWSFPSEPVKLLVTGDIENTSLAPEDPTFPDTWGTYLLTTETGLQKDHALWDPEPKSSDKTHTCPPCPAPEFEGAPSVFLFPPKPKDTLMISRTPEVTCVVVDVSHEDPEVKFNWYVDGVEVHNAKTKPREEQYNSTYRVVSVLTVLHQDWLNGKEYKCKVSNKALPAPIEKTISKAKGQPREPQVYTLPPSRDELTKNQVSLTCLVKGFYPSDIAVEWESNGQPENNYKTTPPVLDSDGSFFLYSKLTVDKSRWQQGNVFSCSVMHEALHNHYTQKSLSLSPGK
Nature of the assay: Effect of peptides on NKp46D2-Ig binding to target cells (flow cytometry). The conditions noted are these: for Effect on NKp46D2L binding to cells: 1.5 hr, compared to staining without peptide or with non-affecting peptides, number in brackets is an undefined grade. The method, then: as §1
(§3) Target cells were incubated for 1.5 hr with 2 μg/well NKp46D2-Ig and 10 μg/well of each peptide. NKp46D2-Ig binding intensity was determined by flow cytometry, using fluorescent 2Ab (goat anti-mouse monoclonal antibody).
as §2

The next assay concerns the target T3, LIR1-Ig (Homo sapiens, UniProt Q8NHL6).
T3 construct: made in house
Nature of the assay: Effect of peptides on LIR1-Ig binding to target cells (flow cytometry). The settings on record: for Binding of LIR1-Ig in the presence of peptide: Example 1, FIGS. 3 and 5, HeLa cells. The method, then: as §1, with “target cells were incubated with 2 μg of the NK receptor-Ig and 5 or 10 μg of the peptides in staining solution consisting” left out
as §3, §2

A further assay concerns the target T4, NKp46-Ig (Homo sapiens, UniProt O76036).
T4 construct: fusion proteins containing the extracellular domains NKp30, NKp44 or NKp46 fused to the Fc portion of human IgG1; made in house
Briefly: Effect of peptides on NKp46-Ig binding to tumor cells (flow cytometry). The settings on record: Example 3, FIG. 9B/9C; 10 μg/well peptide; to a lesser extent than NKp46D2-Ig binding. The method, then:
as §1, §2

The target in the next assay is T5, NKp30-Ig (Homo sapiens, UniProt O14931).
T5 construct: fusion proteins containing the extracellular domains NKp30, NKp44 or NKp46 fused to the Fc portion of human IgG1; made in house
T5 sequence (O14931 19-135 limits assumed): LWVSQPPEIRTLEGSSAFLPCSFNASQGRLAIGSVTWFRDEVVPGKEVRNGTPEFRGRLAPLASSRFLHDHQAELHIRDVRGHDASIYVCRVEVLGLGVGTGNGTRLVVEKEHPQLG
Briefly: Effect of peptide on NKp30-Ig binding to HeLa cells (flow cytometry). The settings on record: pep4 0.625 to 10 μg/well, FIG. 9D. The method, then: as §1, with “target cells were incubated with 2 μg of the NK receptor-Ig and 5 or 10 μg of the peptides in staining solution consisting” left out
as §2

The subject of assay [2] is NKp46-expressing NK cells. Briefly: Flow cytometry cytotoxicity assay: lysis of target tumor cells by human primary NK cells. Type of assay: cell-based. The method, then:
(§4) NK cells were isolated from the peripheral blood of healthy donors using a human NK cell isolation kit (Miltenyi Biotec). NK purity was greater than 90% (CD3^−CD56^±). Purified NK cells were cultured in CellGro SCGM serum-free medium (CellGenix, 2001) supplemented with 10% heat inactivated human plasma from healthy donors, 1 mM sodium pyruvate, 2 mM L-glutamine, MEM non-essential amino acids, 1% penicillin/streptomycin, 10 mM HEPES (Gibco™) and 300 IU/ml of human IL-2 (Biological Industries Israel Ltd).
(§5) The flow cytometry cytotoxicity assay was previously described (Flodstrom et al. Diabetes 48, 706-713 (1999)). Effector human primary NK cells were labeled with CellTrace CFSE (Invitrogen, C3554). Analysis of 7-AAD for negative-CFSE target tumor cells was performed using a FACSCantoII and data were analyzed by Diva 6.1.2. For blocking experiments, NK cells were pre-incubated with mouse polyclonal anti-NKp46 serum or with naive serum 30 min at 4° C. before being combined with target cells. The NK degranulation assay was performed as previously described (Raulet, D. H. Nat Rev Immunol 3, 781-790 (2003); Biassoni, R. et al. Eur J Immunol 29, 1014-1020 (1999)).
Next, the influence of the peptide of SEQ ID NO: 4 on NK cells function was investigated. Target HeLa cells were plated and pep4 or mock peptide was added just before adding an effector human primary NK cell line. […] To verify that the peptide of SEQ ID NO: 4 inhibits NKp46-mediated lysis, anti-NKp46 serum was used to block the receptor on human primary NK cells.

A further assay deals with human primary NK cells. Briefly: CD107a (LAMP-1) degranulation assay of human primary NK cells. The conditions noted are these: co-cultured with HeLa or 721.221 target cells for four hours at different E:T ratios; FIG. 10C, p<0.05. Format: cell-based. The method, then:
as §4
as §5, with “1014-1020 (1999)). […]” for “1014-1020 (1999)).”

Where [3] appears, read: 2 μg/well NKp46D2-Ig, 10 μg/well peptide.
Setting [4] is: HeLa cells, pep4 0.625 to 10 μg/well, FIG. 9D.

T4 sequence (O76036 22-258 limits assumed): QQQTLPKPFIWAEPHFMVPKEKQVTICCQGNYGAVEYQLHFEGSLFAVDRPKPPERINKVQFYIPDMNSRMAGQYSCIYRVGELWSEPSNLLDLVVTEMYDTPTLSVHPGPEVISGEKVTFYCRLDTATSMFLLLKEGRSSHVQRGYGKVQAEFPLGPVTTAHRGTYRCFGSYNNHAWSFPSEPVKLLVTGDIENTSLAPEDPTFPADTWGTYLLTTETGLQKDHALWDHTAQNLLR
T3 sequence (Q8NHL6 24-461 limits assumed): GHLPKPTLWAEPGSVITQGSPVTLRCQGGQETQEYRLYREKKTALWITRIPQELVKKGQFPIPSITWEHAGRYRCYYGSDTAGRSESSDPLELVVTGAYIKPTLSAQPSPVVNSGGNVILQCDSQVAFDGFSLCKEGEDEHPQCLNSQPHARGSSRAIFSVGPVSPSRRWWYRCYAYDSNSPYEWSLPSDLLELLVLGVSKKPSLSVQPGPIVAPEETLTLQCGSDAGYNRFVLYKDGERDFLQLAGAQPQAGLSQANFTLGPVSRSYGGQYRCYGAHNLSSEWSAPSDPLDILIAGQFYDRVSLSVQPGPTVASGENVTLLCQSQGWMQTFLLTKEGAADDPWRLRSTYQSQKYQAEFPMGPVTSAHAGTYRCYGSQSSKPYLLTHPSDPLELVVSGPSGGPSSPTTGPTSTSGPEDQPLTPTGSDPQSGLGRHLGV

Regarding “EASAL VCIRL VTSSK PRTVA (EASALVCIRLVTSSKPRTVA) [SEQ ID NO: 32]”, the “Direct binding to tumor cells” value with human cancer cells was “Yes (1)”. Also, in the assay with NKp44-Ig, the “Effect on NKp44-Ig binding to tumor cells” value (“Effect on NKp44-Ig binding” below) is “Enhance (1)”.
In the case of “KGWCK EASAL VCIRL VTSSK (KGWCKEASALVCIRLVTSSK) [SEQ ID NO: 31]”, the “Direct binding to tumor cells” value in the assay on human cancer cells is reported as “Yes (1)”. For the same substance, in the assay with NKp44-Ig, the “Effect on NKp44-Ig binding” value is “Enhance (1)”.
For “LDTAT SMFLL LKEGR SSHVQ (LDTATSMFLLLKEGRSSHVQ) [SEQ ID NO: 6]”, the “Direct binding to cells” value in [1] is on record as “No”. The “Effect on NKp46D2L binding to cells” value in the assay with NKp46D2-Ig (setting [3]) is listed as “inhibiting binding”; with NKp46D2-Ig (2 μg/well NKp46D2-Ig, 10 μg/well peptide, listed as 6) it was “Suppress (1)”. Besides, the “Binding of LIR1-Ig in the presence of peptide” value (“Binding of LIR1-Ig” below) with LIR1-Ig is on record as “not affected”.
In the case of “PLGPV TTAHR GTYRC FGSYN (PLGPVTTAHRGTYRCFGSYN) [SEQ ID NO: 12]”, the “Direct binding to cells” value in [1] is recorded as “direct binding”; in [1] (listed as 12) it was “Yes (3)”. Further, the “Effect on NKp46D2L binding to cells” value with NKp46D2-Ig (setting [3]) is on record as “enhancing NKp46D2-Ig binding”; with NKp46D2-Ig (2 μg/well NKp46D2-Ig, 10 μg/well peptide, listed as 12), “Enhance (3)”. Moreover, the “Binding of LIR1-Ig” value in the assay with LIR1-Ig was “not affected”.
In the case of “SGEKV TFYCR LDTAT SMFLL (SGEKVTFYCRLDTATSMFLL) [SEQ ID NO: 4]”, the “Direct binding to cells” value in [1] is listed as “No”. For the same substance, the “Effect on NKp46D2L binding to cells” value with NKp46D2-Ig (setting [3]) was “inhibiting binding”; with NKp46D2-Ig (2 μg/well NKp46D2-Ig, 10 μg/well peptide, listed as 4), “Suppress (2)”. In addition, the “Binding of NKp46D2-Ig to HeLa cells upon co-incubation with peptide” value in the assay with NKp46D2-Ig (Example 3, FIG. 9A, 2 μg/well NKp46D2-Ig, 10 μg/well peptide) is “inhibited binding”. The “Inhibition of rNKp46 binding across tumor cell lines” value with NKp46D2-Ig (HeLa, PC-3, HEK293T, 721.221, CHO-K1 and MIN-6 cells, FIG. 9C) is “evident for numerous tumor cell lines”. The “Binding of LIR1-Ig” value in the assay with LIR1-Ig was “not affected”. In addition, the “Binding inhibition of LIR1-Ig” value with LIR1-Ig (setting [4]) is recorded as “did not induce significant binding inhibition”. In addition, in the assay with NKp44-Ig (setting [4]), the “Binding inhibition of NKp44-Ig” value is listed as “did not induce significant binding inhibition”. Besides, the “NKp46-Ig binding to tumor cells in the presence of peptide” value (“NKp46-Ig binding to tumor cells” below) with NKp46-Ig was “inhibited”. Further, the “Binding inhibition of NKp30-Ig” value with NKp30-Ig was “did not induce significant binding inhibition”. Besides, in assay [2] (721.221 and CHO-K1 target cells), the “Lysis of target 721.221 and CHO-K1 cells by NK cells” value was “inhibition of lysis”. In [2] (Example 1), the “Lysis of target cells by NKp46-expressing NK cells” value is “inhibit lysis”. Moreover, in assay [2] (anti-NKp46 serum compared to control serum, FIG. 10B), the “Blocking effect of anti-NKp46 serum on lysis when the peptide was present” value is recorded as “no blocking effect was observed”. Moreover, the “Lysis of target cells in the presence of control serum” value in [2] (compared to control peptide, 15:1 E:T, FIG. 10B, p<0.01) was “inhibited lysis”. In addition, the “Lysis of target HeLa cells by human primary NK cell line” value in assay [2] (compared to mock1, 4 hr, FIG. 10A, p<0.01) is recorded as “significantly suppressed”. Also, the “Percentage of CD107a+ NK cells” value with human primary NK cells is given as “significantly reduced”.
Regarding “SMFLL LKEGR SSHVQ RGYGK (SMFLLLKEGRSSHVQRGYGK) [SEQ ID NO: 7]”, the figures for the “Direct binding to cells” value in assay [1] and in [1] (listed as 7) were “direct binding” and “Yes (1)”, respectively. In addition, the “Effect on NKp46D2L binding to cells” value with NKp46D2-Ig (setting [3]) is on record as “enhancing NKp46D2-Ig binding”; with NKp46D2-Ig (2 μg/well NKp46D2-Ig, 10 μg/well peptide, listed as 7) it was “Enhance (2)”. Moreover, the “Binding of LIR1-Ig” value with LIR1-Ig is listed as “not affected”.
Turning to “TFYCR LDTAT SMFLL (TFYCRLDTATSMFLL) [SEQ ID NO: 55]”, the “NKp46-Ig binding to tumor cells” value with NKp46-Ig was “also inhibited”.
In the case of “TFYCR LDTAT SMFLL LKEGR (TFYCRLDTATSMFLLLKEGR) [SEQ ID NO: 5]”, the “Direct binding to cells” value in assay [1] was “No”. For the same substance, the “Effect on NKp46D2L binding to cells” value in the assay with NKp46D2-Ig (setting [3]) is “inhibiting binding”; with NKp46D2-Ig (2 μg/well NKp46D2-Ig, 10 μg/well peptide, listed as 5), “Suppress (2)”. For the same substance, in the assay with LIR1-Ig, the “Binding of LIR1-Ig” value was “not affected”. In addition, the “NKp46-Ig binding to tumor cells” value in the assay with NKp46-Ig is on record as “inhibited”.
On to “TTAHR GTYRC FGSYN NHAWS (TTAHRGTYRCFGSYNNHAWS) [SEQ ID NO: 13]”, for which the “Direct binding to cells” value in assay [1] is reported as “direct binding”; in assay [1] (listed as 13) it was “Yes (2)”. The “Effect on NKp46D2L binding to cells” value with NKp46D2-Ig (setting [3]) is “enhancing NKp46D2-Ig binding”; in the assay with NKp46D2-Ig (2 μg/well NKp46D2-Ig, 10 μg/well peptide, listed as 13), “Enhance (1.5)”. The “Binding of LIR1-Ig” value with LIR1-Ig was “not affected”.
As to “VCIRL VTSSK PRIMA WTSRF (VCIRLVTSSKPRTMAWTSRF) [SEQ ID NO: 33]”, the “Effect on NKp44-Ig binding” value with NKp44-Ig is “Enhance (1)”.
As to “VTSSK PRTVA WTSRF TIWDD (VTSSKPRTVAWTSRFTIWDD) [SEQ ID NO: 34]”, in the assay with human cancer cells, the “Direct binding to tumor cells” value was “No”. Moreover, the “Effect on NKp44-Ig binding” value in the assay with NKp44-Ig is listed as “inhibiting binding”; with NKp44-Ig (listed as 34) it was “Suppress (1.5)”.
